The supplement of paper PMC7877785
± gives the uncertainty stated by the source.

Experiment: self-splicing fitness, log relative to wild type (ln ratio); higher = more splicing; Tetrahymena group I intron in knt gene, E. coli kanamycin selection, DiMSum; sequences stand for … in CUCUCU…GGAGGGAAAAGUUAUCAGGCAUGCACCUGGUAGCUAGUCUUUAAACCAAUAGAUUGCAUCGGUUUAAAAGGCAAGACCGUCAAAUUGCGGGAAAGGGGUCAACAGCCGUUCAGUACCAAGUCUCAGGGGAAACUUUGAGAUGGCCUUGCAAAGGGUAUGGUAAUAAGCUGACGGACAUGGUCCUAACCACGCAGCCAAGUCCUAAGUCAACAGAUCUUCUGUUGAUAUGGAUGCAGUUCACAGACUAAAUGUCGGUCGGGGAAGAUGUAUUCUUCUCAUAAGAUAUAGUCGGACCUCUCCUUAAUGGGAGCUAGCGGAUGAAGUGAUGCAACACUGGAGCCGCUGGGAACUAAUUUGUAUGCGAAAGUAUAUUGAUUAGUUUUGGAGUACUCGUGGUCG
Method in brief: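 Colonies from six replicate transformations of E. coli BL21(DE3) were pooled and amplicon-sequenced on an Illumina HiSeq 2500. The library placed an intron with all eight P1ex-region nucleotides randomised inside the knt kanamycin-resistance gene on pET-22b(+), and cells grew overnight at 37°C or 30°C on LB agar with or without 25 μg/mL kanamycin (plus 100 μg/mL carbenicillin, 50 μM IPTG, 0.2% rhamnose). Fitness is the DiMSum error-weighted combination of wild-type-normalised replicate fold changes, kanamycin versus none.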

Row | Sequence | self-splicing fitness (ln) (30 °C) | self-splicing fitness (ln) (37 °C)
1 | AGCUAGCAAUAUUACGUGAU | -3.09 ± 0.15 | -1.79 ± 0.15
2 | AGCUAGCAAUAUUACGUGCC | -2.52 ± 0.36 | -1.84 ± 0.27
3 | AGCUAGCAAUAUUACGUGGU | -2.52 ± 0.17 | -2.18 ± 0.24
4 | AGCUAGCAAUAUUACGUUCG | -2.57 ± 0.14 | -2.41 ± 0.23
5 | AGCUAGCAAUAUUACGUUCU | -1.07 ± 0.062 | -0.621 ± 0.08
6 | AGCUAGCAAUAUUACGUUGU | -2.56 ± 0.17 | -2.32 ± 0.22
7 | AGCUAGCAAUAUUACGUUUA | -2.69 ± 0.14 | -1.46 ± 0.098
8 | AGCUAGCAAUAUUACGUUUC | -4.92 ± 0.25 | -2.56 ± 0.16
9 | AGGAAGCAAUAUUACGAACU | -0.35 ± 0.097 | 0.434 ± 0.13
10 | AGGAAGCAAUAUUACGAAGA | -2.9 ± 0.34 | -1.61 ± 0.32
11 | AGGAAGCAAUAUUACGAAUA | -2.74 ± 0.36 | -1.11 ± 0.27
12 | AGGAAGCAAUAUUACGAGCU | -0.467 ± 0.082 | 0.0249 ± 0.1
13 | AGGAAGCAAUAUUACGAUCA | -0.344 ± 0.091 | -0.31 ± 0.09
14 | AGGAAGCAAUAUUACGCAGA | -3.5 ± 0.31 | -1.33 ± 0.14
15 | AGGAAGCAAUAUUACGCGAC | -2.62 ± 0.45 | -0.793 ± 0.31
16 | AGGAAGCAAUAUUACGCUAU | -3.03 ± 0.21 | -2.35 ± 0.2
17 | AGGAAGCAAUAUUACGCUCU | -2.56 ± 0.22 | -1.99 ± 0.29
18 | AGGAAGCAAUAUUACGGAAA | -2.92 ± 0.23 | -2.26 ± 0.18
19 | AGGAAGCAAUAUUACGGACU | -0.293 ± 0.11 | -0.668 ± 0.097
20 | AGGAAGCAAUAUUACGUAUA | -1.79 ± 0.17 | -2.16 ± 0.24
21 | AGGAAGCAAUAUUACGUUCU | -3.47 ± 0.28 | -1.59 ± 0.17

Row | Sequence | self-splicing fitness (ln) (30 °C) | self-splicing fitness (ln) (37 °C)
22 | AGGCAGCAAUAUUACGACAG | -1.61 ± 0.18 | -1.54 ± 0.23
23 | AGGCAGCAAUAUUACGAGGU | -2.14 ± 0.15 | -2.68 ± 0.26
24 | AGGCAGCAAUAUUACGAUGC | -3.17 ± 0.15 | -2.8 ± 0.18
25 | AGGCAGCAAUAUUACGCCAA | -0.987 ± 0.25 | -0.179 ± 0.25
26 | AGGCAGCAAUAUUACGCCAG | -0.444 ± 0.14 | -0.82 ± 0.25
27 | AGGCAGCAAUAUUACGCCUC | -3.08 ± 0.33 | 
28 | AGGCAGCAAUAUUACGCGAA | -1.54 ± 0.095 | -0.675 ± 0.13
29 | AGGCAGCAAUAUUACGCGGC | -3.85 ± 0.24 | -2.39 ± 0.17
30 | AGGCAGCAAUAUUACGCUGU | -3.99 ± 0.16 | -3.28 ± 0.2
31 | AGGCAGCAAUAUUACGGAGC | -3.51 ± 0.14 | -3.32 ± 0.26
32 | AGGCAGCAAUAUUACGGAGU | -3.02 ± 0.22 | -2.09 ± 0.16
33 | AGGCAGCAAUAUUACGGAUA | -1.85 ± 0.22 | -2.11 ± 0.22
34 | AGGCAGCAAUAUUACGGCAA | -0.539 ± 0.069 | -1.11 ± 0.085
35 | AGGCAGCAAUAUUACGGCGA | -0.378 ± 0.075 | -0.154 ± 0.091
36 | AGGCAGCAAUAUUACGGGGC | -3.89 ± 0.37 | -2.07 ± 0.23
37 | AGGCAGCAAUAUUACGGGGG | -3.34 ± 0.21 | -2.98 ± 0.23
38 | AGGCAGCAAUAUUACGGUCU | -3.15 ± 0.24 | -2.61 ± 0.25
39 | AGGCAGCAAUAUUACGGUUA | -0.809 ± 0.077 | 0.285 ± 0.08
40 | AGGCAGCAAUAUUACGUAAU | -1.94 ± 0.088 | -0.867 ± 0.088
41 | AGGCAGCAAUAUUACGUACU | -0.408 ± 0.079 | 0.323 ± 0.12
42 | AGGCAGCAAUAUUACGUAUU | -1.41 ± 0.095 | -1.22 ± 0.12
